Columns and labels:
[1] = target: T1, Chimpanzee Fas on the cell surface (chimpanzee, UniProt K6ZIR5 26-335); assay: flow cytometry histograms (FL1-H) on chimpanzee cells (cell type not printed on the sheet), FITC anti-human IgG secondary
T1 construct: also called Fas on chimpanzee B cell line
T1 sequence: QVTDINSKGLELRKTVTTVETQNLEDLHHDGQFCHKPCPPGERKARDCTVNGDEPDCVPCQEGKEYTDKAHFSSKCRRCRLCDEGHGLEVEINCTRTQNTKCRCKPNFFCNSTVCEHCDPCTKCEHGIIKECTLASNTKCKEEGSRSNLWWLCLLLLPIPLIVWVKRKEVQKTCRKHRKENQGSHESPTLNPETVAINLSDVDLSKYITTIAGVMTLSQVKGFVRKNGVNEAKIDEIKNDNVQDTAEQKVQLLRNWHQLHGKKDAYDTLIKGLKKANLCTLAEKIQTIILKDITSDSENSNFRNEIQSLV
Source text: (§1) Reactivity of F45D9-γ1 or F45D9-γ4 mAb with Fas molecules of various species was initially screened using primary blood cells or lymphocytes cell lines. The binding of F45D9-γ1 or F45D9-γ4 mAb was explored by immunofluoresce staining and flow cytometry analysis, in human PBMC, purified human resting T cells, activated human T cells, peripheral blood lymphocytes (PBL) derived from BALE/c mice, rat, dog and pig, and in B cell lines or PBL derived from common marmoset, cynomolgus macaque, olive baboon, rhesus macaque and chimpanzee. Resting and activated human T cells were prepared as described in Example 7. B cells lines from monkeys were obtained from Biomedical Primate Research Center (Rijswijk, The Netherlands), and were cultured in RPMI 1640 medium supplemented with 2 mM glutamax, 100 UI/mL penicillin, 100 μg/mL streptomycin and 10% fetal bovine serum, at 37° C. and 5% CO₂. After washing in PBS cells (0.2−0.4×10⁶ cells/well) were incubated in staining buffer (PBS/1% FBS) containing F45D9-γ1 or human IgG control antibodies (10-20 ug/ml) in a 96-well U-bottom plate for 30 min on ice, in a 100 ul/well volume. Cells were then washed once with staining buffer, and further incubated for 30 min on ice with 1:30 dilution of FITC-conjugated rabbit F(ab′)₂ anti-human kappa (DakoCytomation Cat. F0434) or FITC-conjugated rabbit F(ab′)₂ anti-human IgG (DakoCytomation Cat. F0056). […]

[2] = target: T2, Cynomolgus macaque Fas on the cell surface (cynomolgus macaque, UniProt Q9TSN4 26-331); assay: flow cytometry histograms (FL1-H) on cynomolgus macaque cells (cell type not printed on the sheet), FITC anti-human kappa or FITC anti-human IgG secondary
T2 construct: whole, on cells; also called Fas on cynomolgus macaque B cell line and PBL
T2 sequence (looked up): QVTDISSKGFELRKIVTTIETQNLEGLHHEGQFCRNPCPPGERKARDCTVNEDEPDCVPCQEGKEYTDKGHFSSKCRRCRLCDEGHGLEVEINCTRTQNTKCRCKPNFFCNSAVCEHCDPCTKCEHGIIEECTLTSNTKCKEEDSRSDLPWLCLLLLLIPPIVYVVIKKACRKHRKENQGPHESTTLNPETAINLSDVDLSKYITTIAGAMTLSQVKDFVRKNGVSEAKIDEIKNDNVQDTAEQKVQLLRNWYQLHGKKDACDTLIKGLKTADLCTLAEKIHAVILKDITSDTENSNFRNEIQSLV
Source text: as §1

JPT33 peptide = target: T3, JPT33 peptide (human); assay: peptide microarray (JPT), 50 ug/ml antibody
T3 construct: Peptide of the human Fas peptide scan, immobilized on a glass microarray (JPT peptide technologies)
T3 peptide: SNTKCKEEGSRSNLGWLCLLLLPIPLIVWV
Experimental: (§2) Epitope mapping of F45D9-γ1 and F45D9-γ4 mAb was done using peptide microarrays from JPT peptide technologies. The microarray is composed of several different peptide scans of TNR6_Human protein (FAS molecule, accession number P25445; Oehm A. et al. J. Biol. Chem. 267:10709, 1992), immobilized on a glass surface. The microarrays were pre-treated 2 h at room temperature with blocking buffer (Pierce, Superblock), followed by washings with TBS buffer, pH 8.0 and water (3 times each). Pre-treated arrays were scanned using Axon-4000B-Microarray Scanner for background control. […] Control incubation with secondary antibody only was performed in parallel. All microarrays were scanned using Axon-4000B-Microarray Scanner with appropriate wavelength settings. SPOT recognition software package ArrayPro was used for data analysis. Mean of signal intensities from 3 identical subarrays on each microarray image were used for data evaluation.

JPT31 peptide = target: T4, JPT31 peptide (human); assay: peptide microarray (JPT), 50 ug/ml antibody
T4 construct: Peptide of the human Fas peptide scan, immobilized on a glass microarray (JPT peptide technologies)
T4 peptide: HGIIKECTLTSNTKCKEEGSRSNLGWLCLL
Experimental: as §2

JPT32 peptide = target: T5, JPT32 peptide (human); assay: peptide microarray (JPT), 50 ug/ml antibody
T5 construct: Peptide of the human Fas peptide scan, immobilized on a glass microarray (JPT peptide technologies)
T5 peptide: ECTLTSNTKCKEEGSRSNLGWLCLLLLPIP
Experimental: as §2

[3] = target: T6, Mouse Fas on the cell surface (mouse, UniProt P25446 22-327); assay: flow cytometry histograms (FL1-H) on mouse PBL, FITC anti-human kappa secondary
T6 construct: whole, on cells; also called Fas on peripheral blood lymphocytes of BALB/c mice
T6 sequence (looked up): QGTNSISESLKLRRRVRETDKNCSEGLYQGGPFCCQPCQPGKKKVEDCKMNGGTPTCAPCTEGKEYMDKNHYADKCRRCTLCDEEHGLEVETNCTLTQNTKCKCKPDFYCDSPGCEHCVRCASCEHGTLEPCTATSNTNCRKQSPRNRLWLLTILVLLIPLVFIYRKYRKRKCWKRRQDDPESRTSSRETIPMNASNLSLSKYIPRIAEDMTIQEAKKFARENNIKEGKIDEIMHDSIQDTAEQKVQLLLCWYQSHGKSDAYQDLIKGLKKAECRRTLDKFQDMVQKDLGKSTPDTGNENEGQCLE
Source text: as §1

Measured: binding result

B1: F45D9-γ1 mAb (recombinant human mAb T17/B2-1G4, gamma-1 isotype) (antibody, V domains shown)
VH: QVQLQQWGAGLLKPSETLSLICAVYGGSFSTYYWTWIRQPPGKGLEWIGEINHRGTTNYSPSLKSRVTISVDTSKNHISLNLTSVTAADTALYYCARGLLWIGEGDYGLDVWGQGTTVTVSS
VL: DIQMTQSPSSLSASVGDRVTITCRASQGIRRWLAWYQQKPEKAPKSLIYAASSLQSGVPSRFSGSGSGTDFTLTISSLQPEDFATYYCQQYNSYPYTFGQGTKLEIKR
notes: Whole human IgG1 (γ1fa allotype) with human kappa light chain, made in CHO DG44 cells; also called IgG1; T17/L18/B2-1G4
no binding: [2] | [3]
binds: all other assays above
